Results reported in US20080118529A1.

Target: recombinant human collagen XVIII fragment endostatin (Entremed, Inc) (human) (UniProt P39060)
Assay: ELISA; protein incubated with DXS500k or buffer immobilized, overlaid with tPA in 10 mM εACA

Sequence of Tissue-type plasminogen activator (tPA, Actilyse, Boehringer-Ingelheim) (P00750 36-562 limits assumed): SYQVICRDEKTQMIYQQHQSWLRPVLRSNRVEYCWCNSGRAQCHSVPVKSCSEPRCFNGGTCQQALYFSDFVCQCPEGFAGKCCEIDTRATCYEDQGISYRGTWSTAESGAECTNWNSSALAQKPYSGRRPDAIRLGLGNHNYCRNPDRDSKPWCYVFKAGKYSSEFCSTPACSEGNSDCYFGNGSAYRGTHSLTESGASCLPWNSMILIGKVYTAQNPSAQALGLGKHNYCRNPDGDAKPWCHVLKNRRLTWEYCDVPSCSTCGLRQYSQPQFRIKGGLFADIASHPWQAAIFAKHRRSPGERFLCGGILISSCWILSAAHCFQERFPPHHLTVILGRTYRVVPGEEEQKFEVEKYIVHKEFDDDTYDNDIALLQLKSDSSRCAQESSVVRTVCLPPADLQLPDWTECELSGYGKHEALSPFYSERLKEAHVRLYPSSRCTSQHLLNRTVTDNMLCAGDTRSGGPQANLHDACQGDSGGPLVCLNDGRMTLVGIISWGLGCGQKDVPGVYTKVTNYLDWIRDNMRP

factor of increase in tPA binding (protein exposed to DXS500k against protein in buffer only): 10.5 fold
Substance: Tissue-type plasminogen activator (tPA, Actilyse, Boehringer-Ingelheim) (from UniProt P00750 36-562) (enzyme)
